In patent US20190054150A1 (AEQUUS BIOPHARMA, published 2019):
Square brackets hold non-standard residues; d marks the D form. Ends that are not written are not given here. Nle = CCCC[C@H](N)C(=O)O

What was measured:
Assay in all cases: cell-based or functional assay
[1] = target: MCR4 (human, UniProt P32245 1-332)
[2] = target: MCR5 (human, UniProt P33032 1-325)
[3] = target: MCR3 (human, UniProt P41968 1-323)
[4] = target: MCR1 (human, UniProt Q01726 1-317)
Chain of MCR1 (Q01726 whole entry): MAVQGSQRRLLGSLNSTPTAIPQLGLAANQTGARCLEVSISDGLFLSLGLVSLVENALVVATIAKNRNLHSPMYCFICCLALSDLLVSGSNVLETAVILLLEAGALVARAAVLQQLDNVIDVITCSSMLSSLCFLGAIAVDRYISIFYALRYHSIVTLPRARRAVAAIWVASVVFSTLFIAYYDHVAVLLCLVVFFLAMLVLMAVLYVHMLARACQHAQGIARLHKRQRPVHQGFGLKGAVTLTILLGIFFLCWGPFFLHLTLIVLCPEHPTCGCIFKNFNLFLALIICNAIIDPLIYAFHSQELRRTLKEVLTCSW

Chain of MCR4 (P32245 whole entry): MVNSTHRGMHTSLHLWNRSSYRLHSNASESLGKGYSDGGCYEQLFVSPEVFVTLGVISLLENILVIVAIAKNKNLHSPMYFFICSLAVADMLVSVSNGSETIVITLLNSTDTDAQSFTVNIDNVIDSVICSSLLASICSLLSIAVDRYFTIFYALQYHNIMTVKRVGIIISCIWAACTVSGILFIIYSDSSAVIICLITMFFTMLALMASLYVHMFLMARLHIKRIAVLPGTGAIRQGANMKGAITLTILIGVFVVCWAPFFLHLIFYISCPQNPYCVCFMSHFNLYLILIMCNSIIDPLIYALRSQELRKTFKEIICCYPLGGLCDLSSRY
Chain of MCR5 (P33032 whole entry): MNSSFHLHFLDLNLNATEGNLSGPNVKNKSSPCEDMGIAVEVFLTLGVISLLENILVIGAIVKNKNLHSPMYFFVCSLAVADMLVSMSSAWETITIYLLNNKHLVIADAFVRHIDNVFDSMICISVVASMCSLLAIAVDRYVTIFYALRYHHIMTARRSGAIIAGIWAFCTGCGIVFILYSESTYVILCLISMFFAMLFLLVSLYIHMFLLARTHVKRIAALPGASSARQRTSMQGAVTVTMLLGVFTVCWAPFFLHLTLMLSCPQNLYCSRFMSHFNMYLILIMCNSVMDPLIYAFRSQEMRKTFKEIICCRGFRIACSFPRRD
Chain of MCR3 (P41968 whole entry): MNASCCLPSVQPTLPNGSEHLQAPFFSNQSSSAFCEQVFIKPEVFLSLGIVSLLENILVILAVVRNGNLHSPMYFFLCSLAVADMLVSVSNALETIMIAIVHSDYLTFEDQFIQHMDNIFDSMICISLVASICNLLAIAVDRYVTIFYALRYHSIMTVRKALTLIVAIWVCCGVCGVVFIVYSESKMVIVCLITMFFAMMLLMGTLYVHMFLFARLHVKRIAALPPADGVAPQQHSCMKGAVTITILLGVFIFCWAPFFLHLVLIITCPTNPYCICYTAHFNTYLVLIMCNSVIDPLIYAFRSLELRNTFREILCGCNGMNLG

Binder	MCR4 EC50 (nM); cAMP production, LANCE cAMP assay, CHO-MCR4 cells, cell pool C [1] [nM]	MCR5 EC50 (nM); cAMP production, LANCE cAMP assay, CHO-MCR5 cells, cell pool C [2] [nM]	MCR3 EC50 (nM); cAMP production, LANCE cAMP assay, CHO-MCR3 cells, cell pool C [3] [nM]	MCR1 EC50 (nM); cAMP production, LANCE cAMP assay, CHO-MCR1 cells, cell pool C [4] [nM]
SYSMEHFRWGKPVGKKRRPVKVYPGGGSSYS[Nle]EH[dF]RWGKPV (ends and bridges not checked) [ACTH1-24-4aa-NDP-α-MSH]	1.9	9.3	0.92	0.41
SYSMEHFRWGKPVGKKRRAVKVYPGGGSSYS[Nle]EH[dF]RWGKPV [ACTH1-24-point-5-4aa-NDP-α-MSH]	1.8	20	0.68	0.32
SYSMEHFRWGKPVGAARRPVKVYPGGGSSYS[Nle]EH[dF]RWGKPV (ends and bridges not checked) [ACTH1-24-point-1-2-4aa-NDP-α-MSH]	1.7	11	0.42	0.25
SYSMEHFRWGKPVGKKAAAVKVYPGGGSSYS[Nle]EH[dF]RWGKPV (ends and bridges not checked) [ACTH1-24-point-3-5-4aa-NDP-α-MSH]	2.4	14	0.61	0.3
SYSMEHFRWGKPVGKKRRPVKVYPGGGGSGGSYS[Nle]EH[dF]RWGKPV (ends and bridges not checked) [ACTH1-24-7aa-NDP-α-MSH]	1.5	13	0.85	0.24
SYSMEHFRWGKPVGKKRRAVKVYPGGGGSGGSYS[Nle]EH[dF]RWGKPV [ACTH1-24-point-5-7aa-NDP-α-MSH]	2.1	12	0.76	0.22
SYSMEHFRWGKPVGAARRPVKVYPGGGGSGGSYS[Nle]EH[dF]RWGKPV (ends and bridges not checked) [ACTH1-24-point-1-2-7aa-NDP-α-MSH]	2.3	10	0.47	0.3
SYSMEHFRWGKPVGKKAAAVKVYPGGGGSGGSYS[Nle]EH[dF]RWGKPV (ends and bridges not checked) [ACTH1-24-point-3-5-7aa-NDP-α-MSH]	2.4	8.5	0.72	0.41
SYSMEHFRWGKPVGKKRRAVKVYPGGGGSGGGGSSYS[Nle]EH[dF]RWGKPV [ACTH1-24-point-5-10aa-NDP-α-MSH]	2.8	11	1	0.69
SYSMEHFRWGKPVGAARRPVKVYPGGGGSGGGGSSYS[Nle]EH[dF]RWGKPV (ends and bridges not checked) [ACTH1-24-point-1-2-10aa-NDP-α-MSH]	2.3	13	0.58	0.45
SYSMEHFRWGKPVGKKAAAVKVYPGGGGSGGGGSSYS[Nle]EH[dF]RWGKPV (ends and bridges not checked) [ACTH1-24-point-3-5-10aa-NDP-α-MSH]	3.8	16	1.1	0.78
Ac-SYS[Nle]EH[dF]RWGKPVGGGGSGGGGSSYSMEHFRWGKPVGKKRRPVKVYP [NDP-α-MSH-linker-linker-ACTH1-24]	2.2	9.8	1.8	0.46
SYSMEHFRWGKPVGKKRRPVKVYPGGGGSGGGGSSYS[Nle]EH[dF]RWGKPV (ends and bridges not checked) [ACTH1-24-linker-linker-NDP-α-MSH]	1.8	9.6	0.8	0.39
